Here are results for one substance from PMC4041212.

Experiment [1] deals with BRCA1 (UniProt P38398). The experiment can be described thus: anti-V5 co-IP, BRCA1 blot. Conditions: reference: wild type V5-EXO1; sites S639,T732,S815,T824.
Experiment [2] deals with BRCA1 (UniProt P38398). The experiment is described as follows: reverse co-IP. Conditions: reference: wild type EXO1; sites S639,T732,S815,T824.

With EXO1 (from UniProt Q9UQ84) 4A-EXO1, the “binding against the reference” value with BRCA1 [1] and in the experiment with BRCA1 [2] was “weaker” each time.
